Target: fibronectin (UniProt P02751)
Sequence of UniProt P02751 (P02751 32-2477): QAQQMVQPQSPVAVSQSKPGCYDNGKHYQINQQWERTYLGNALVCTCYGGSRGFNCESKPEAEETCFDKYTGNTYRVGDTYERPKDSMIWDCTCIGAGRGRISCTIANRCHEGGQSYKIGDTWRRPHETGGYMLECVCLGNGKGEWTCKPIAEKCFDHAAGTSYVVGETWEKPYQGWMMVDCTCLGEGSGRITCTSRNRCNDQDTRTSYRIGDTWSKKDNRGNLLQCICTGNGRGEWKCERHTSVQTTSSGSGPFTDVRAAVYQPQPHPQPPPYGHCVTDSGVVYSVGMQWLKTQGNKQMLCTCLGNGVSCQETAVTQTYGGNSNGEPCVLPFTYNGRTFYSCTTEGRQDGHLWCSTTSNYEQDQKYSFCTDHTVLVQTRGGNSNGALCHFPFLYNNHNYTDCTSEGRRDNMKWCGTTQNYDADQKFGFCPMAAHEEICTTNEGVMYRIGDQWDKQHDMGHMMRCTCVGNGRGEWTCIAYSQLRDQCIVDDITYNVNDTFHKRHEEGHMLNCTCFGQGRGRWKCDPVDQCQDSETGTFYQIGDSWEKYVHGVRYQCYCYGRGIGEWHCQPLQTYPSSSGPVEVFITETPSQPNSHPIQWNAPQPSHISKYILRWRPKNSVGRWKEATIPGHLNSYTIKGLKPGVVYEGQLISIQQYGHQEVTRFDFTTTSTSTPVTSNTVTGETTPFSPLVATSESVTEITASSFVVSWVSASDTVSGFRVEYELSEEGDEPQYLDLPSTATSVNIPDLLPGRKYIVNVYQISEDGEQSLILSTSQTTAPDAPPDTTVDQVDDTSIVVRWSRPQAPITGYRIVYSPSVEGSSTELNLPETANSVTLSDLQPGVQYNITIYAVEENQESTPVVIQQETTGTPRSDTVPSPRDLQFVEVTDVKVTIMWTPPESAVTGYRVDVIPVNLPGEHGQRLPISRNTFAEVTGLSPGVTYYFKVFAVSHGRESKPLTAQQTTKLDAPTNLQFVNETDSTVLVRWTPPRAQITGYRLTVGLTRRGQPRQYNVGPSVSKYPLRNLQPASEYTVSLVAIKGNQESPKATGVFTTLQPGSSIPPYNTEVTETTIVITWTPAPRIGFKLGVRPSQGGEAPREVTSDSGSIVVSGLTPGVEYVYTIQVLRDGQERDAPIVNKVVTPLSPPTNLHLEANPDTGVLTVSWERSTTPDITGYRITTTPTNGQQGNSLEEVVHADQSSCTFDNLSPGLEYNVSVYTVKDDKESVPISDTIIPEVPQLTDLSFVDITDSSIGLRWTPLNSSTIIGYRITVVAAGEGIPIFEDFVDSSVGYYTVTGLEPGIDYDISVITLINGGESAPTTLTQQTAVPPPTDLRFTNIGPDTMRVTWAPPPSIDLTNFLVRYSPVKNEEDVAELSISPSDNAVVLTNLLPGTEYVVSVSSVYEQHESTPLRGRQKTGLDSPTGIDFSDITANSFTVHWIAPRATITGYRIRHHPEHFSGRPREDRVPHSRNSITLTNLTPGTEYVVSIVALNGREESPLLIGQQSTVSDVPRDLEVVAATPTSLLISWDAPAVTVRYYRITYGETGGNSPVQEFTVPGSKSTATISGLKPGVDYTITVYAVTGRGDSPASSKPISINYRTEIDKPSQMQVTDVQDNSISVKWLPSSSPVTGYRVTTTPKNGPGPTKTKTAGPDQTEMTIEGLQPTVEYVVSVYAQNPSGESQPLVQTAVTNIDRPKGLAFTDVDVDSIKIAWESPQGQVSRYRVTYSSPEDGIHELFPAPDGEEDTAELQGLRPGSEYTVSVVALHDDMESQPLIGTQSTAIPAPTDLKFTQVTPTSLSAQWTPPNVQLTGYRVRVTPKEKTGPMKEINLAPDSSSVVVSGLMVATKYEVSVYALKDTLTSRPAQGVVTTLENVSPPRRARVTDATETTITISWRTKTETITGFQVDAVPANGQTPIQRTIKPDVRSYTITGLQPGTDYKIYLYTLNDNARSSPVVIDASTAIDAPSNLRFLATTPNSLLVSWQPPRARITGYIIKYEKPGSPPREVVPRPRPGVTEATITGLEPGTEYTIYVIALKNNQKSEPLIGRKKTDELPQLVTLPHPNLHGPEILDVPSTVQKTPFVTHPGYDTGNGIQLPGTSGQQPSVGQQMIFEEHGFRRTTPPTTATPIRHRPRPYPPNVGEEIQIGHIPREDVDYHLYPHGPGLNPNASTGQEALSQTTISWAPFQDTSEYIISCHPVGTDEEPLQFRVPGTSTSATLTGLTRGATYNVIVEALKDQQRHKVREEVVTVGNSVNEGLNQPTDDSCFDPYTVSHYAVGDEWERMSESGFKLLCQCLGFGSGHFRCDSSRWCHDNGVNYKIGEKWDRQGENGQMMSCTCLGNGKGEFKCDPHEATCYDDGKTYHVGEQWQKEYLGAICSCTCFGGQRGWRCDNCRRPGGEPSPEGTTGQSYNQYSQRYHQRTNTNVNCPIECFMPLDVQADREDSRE

Sequence of β1-integrin (P49134 21-799): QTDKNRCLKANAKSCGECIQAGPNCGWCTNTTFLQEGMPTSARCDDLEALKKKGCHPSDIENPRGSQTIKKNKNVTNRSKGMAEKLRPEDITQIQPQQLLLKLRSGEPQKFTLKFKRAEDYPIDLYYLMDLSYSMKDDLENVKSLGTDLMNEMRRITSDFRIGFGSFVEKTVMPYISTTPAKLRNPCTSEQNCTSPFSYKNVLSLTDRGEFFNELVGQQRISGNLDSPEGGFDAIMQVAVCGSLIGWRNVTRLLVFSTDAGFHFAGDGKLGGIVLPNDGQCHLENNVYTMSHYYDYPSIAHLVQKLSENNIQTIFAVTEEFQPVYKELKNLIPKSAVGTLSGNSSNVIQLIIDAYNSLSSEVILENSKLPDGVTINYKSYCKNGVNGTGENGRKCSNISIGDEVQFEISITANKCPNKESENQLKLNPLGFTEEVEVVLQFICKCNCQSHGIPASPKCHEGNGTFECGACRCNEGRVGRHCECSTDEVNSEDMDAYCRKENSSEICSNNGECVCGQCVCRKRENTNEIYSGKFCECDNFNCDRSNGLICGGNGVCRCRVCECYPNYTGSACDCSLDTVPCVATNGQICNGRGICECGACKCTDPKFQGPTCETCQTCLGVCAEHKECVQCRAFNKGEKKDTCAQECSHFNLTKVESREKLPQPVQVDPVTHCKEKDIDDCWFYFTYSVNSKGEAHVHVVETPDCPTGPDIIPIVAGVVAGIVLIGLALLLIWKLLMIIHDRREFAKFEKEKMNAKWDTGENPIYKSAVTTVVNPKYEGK

- inhibition of adhesion of 3Y1 cells to fibronectin-coated plates (60 min, 37°C) by β1-integrin blocking antibody (hamster anti-rat CD29, 50 µg/mL): 51%
- inhibition of adhesion of HR-3Y1-2 cells to fibronectin-coated plates (60 min, 37°C) by β1-integrin blocking antibody (hamster anti-rat CD29, 50 µg/mL): 57%
Substance: β1-integrin (from UniProt P49134 21-799) (receptor)

Reference: publication PMC3334378
